Experiments:
chymase [1] = target: T1, chymase (Homo sapiens, UniProt P23946 P23946:22-247); assay: inhibition; Suc-AAPF-MCA, 37 C, solution C; settings: tags: recombinant, expressed in yeast, SIGMA
T1 sequence: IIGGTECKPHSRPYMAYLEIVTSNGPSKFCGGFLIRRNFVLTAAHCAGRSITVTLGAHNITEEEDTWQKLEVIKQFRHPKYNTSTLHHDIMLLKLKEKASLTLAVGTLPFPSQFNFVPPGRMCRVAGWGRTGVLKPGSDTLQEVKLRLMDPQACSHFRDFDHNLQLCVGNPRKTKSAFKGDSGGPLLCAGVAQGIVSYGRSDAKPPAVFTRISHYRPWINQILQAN
Method: Here, Suc is a protecting succinyl group, and MCA is a 4-methylcoumaryl-7-amide group; upon cleavage of the C-terminal side of phenylalanine, AMC (7-amino-4-methyl-coumarine) is released. By detecting the fluorescence of this AMC, the enzyme activity of chymase can be determined. The assay was performed using a 96-well plate (F16 Black Maxisorp Fluoronunc, manufactured by Nunc), with a reaction mixture volume of 100 μL, in solution C as a buffer solution. First, each nucleic acid was serially diluted to 0.0027-2 μM concentrations in solution C to obtain 50 μL solutions. After 10 μL of the 1 mM substrate prepared in solution C was added thereto, the plate was set to the microplate reader SpectraMax190 (manufactured by Molecular Devices Corporation), and incubated at 37° C. for 5 minutes. Separately, 0.05 μg (or 0.005 μg) of chymase (recombinant, manufactured by SIGMA) was diluted in solution C to obtain a 40 μL chymase solution, and incubated at 37° C. for 5 minutes. The chymase solution was added to the mixture of the nucleic acid and substrate to initiate an enzyme reaction. The final chymase concentration in the reaction mixture was 16.7 nM (or 1.67 nM), the final substrate concentration being 100 μM. The plate containing the reaction mixture was set to the microplate reader SpectraMax190 (manufactured by Molecular Devices Corporation), and examined for time-dependent changes in the fluorescence intensity at 37° C. for 5 minutes (or 30 minutes) (excitation wavelength 380 nm, detection wavelength 460 nm). A linear approximation of the increase in the fluorescence of the AMC released from the substrate by chymase activity was generated, and its slope was taken as the initial velocity […]. For control, samples were treated and analyzed in the same manner in two cases: use of a 30N or 40N (a nucleotide of 30 or 40 consecutive bases represented by N; N is A, G, C or T) nucleic acid pool (negative control), and use of chymostatin, a known chymotrypsin-like serine protease inhibitor (positive control). Taking the initial reaction velocity without the nucleic acid and inhibitor (V_0) as a 100% enzyme activity, the inhibitory rate of each test substance was calculated using the following equation: […]
The chymase inhibitory activity was measured in the same manner as in Example 3.

chymase [2] = target: T1, chymase; assay: inhibition; angiotensin I; recombinant 0.370; settings: tags: human skin mast cell, Calbiochem
Method: (§1) The total volume of solution for an enzyme reaction in the assay was set to 50 μL, and the reaction was performed in solution C buffer. First, 0.3-0.75 ng of chymase (recombinant, (manufactured by SIGMA) or native (manufactured by Calbiochem)) was diluted with solution C to give 5 μL thereof. Here, the recombinant is chymase expressed by yeast, and the native is chymase purified from human skin mast cell. The nucleic acid was serially diluted with solution C at a concentration of 0.0027-2 μM to give 25 μL thereof. The chymase solution (5 μL) and the nucleic acid solution (25 μL) were mixed, and the mixture was incubated at 37° C. for 5 min. […] The whole mixture was centrifuged at 4° C., 14000 rpm for 10 min, and the supernatant (30 μL) was used for the next fluorescence induction reaction.
(§2) The above-mentioned supernatant (30 μL) was added to a 96 well plate (black, manufactured by Costar), a solution (15 μL) of 2% o-phthalaldehyde (manufactured by SIGMA) in methanol and 0.3M NaOH solution (170 μL) were added to each well, and the mixture was incubated at room temperature for 10 min. […] The plate was set on a microplate reader SpectraMax190 (manufactured by Molecular device) and the fluorescence intensity was measured at an excitation wavelength of 355 nm and a fluorescence wavelength of 460 nm.

chymase [3] = target: T1, chymase; assay: inhibition; angiotensin I; recombinant 0.043; settings: tags: human skin mast cell, Calbiochem; label: 5' biotin
Method: as §1, §2

chymase [4] = target: T1, chymase; assay: inhibition; angiotensin I; recombinant 0.065; settings: tags: human skin mast cell, Calbiochem
Method: as §1, §2

chymase [5] = target: T1, chymase; assay: inhibition; angiotensin I; recombinant 0.036; settings: tags: human skin mast cell, Calbiochem
Method: as §1, §2

chymase [6] = target: T1, chymase; assay: inhibition; angiotensin I; recombinant 0.158; settings: tags: human skin mast cell, Calbiochem
Method: as §1, §2

chymase [7] = target: T1, chymase; assay: inhibition; angiotensin I; recombinant 0.161; settings: tags: human skin mast cell, Calbiochem
Method: as §1, §2

chymase [8] = target: T1, chymase; assay: inhibition; angiotensin I; recombinant 0.201; settings: tags: human skin mast cell, Calbiochem
Method: as §1, §2

B1: 72(6) (mixed)
mixed: GGGTTAGAUAGAGTUAAAAACCC
modifications: 2'-F U; 2'-OMe 1-3,7,8,10,13,16,17,19,20; DNA T4,T5,T14,A18,C21-C23; 5' and 3' idT
Chymase [1]
  IC50: 41 nM
Chymase [2]
  IC50: 573 nM

## GGGTTAGAUAGAGTUAAAAACCC (mixed, 2'-F U; 2'-OMe 1-3,7,10,13,16-20; DNA T4,T5,A8,T14,C21-C23; 5' and 3' idT) [72(8)]
Chymase [3]
  IC50: 97 nM

## GGGTTAGAUAGAGTUAAAAACCC (mixed, 2'-F U; 2'-OMe 1-3,7,8,10,13,16-20; DNA T4,T5,T14,C21-C23; 5' and 3' idT) [SEQ 72]
Chymase [4]
  IC50: 120 nM

## GGGTTAGAUAGAGTUAAAAACCC (mixed, 2'-F U; 2'-OMe 1-3,7,10,13,16-20; DNA T4,T5,A8,T14,C21-C23; 5' and 3' idT) [72(1)]
Chymase [5]
  IC50: 103 nM

B2: 72(7) (mixed)
mixed: GGGTTAGAUAGAGTUAAAAACCC
modifications: 2'-F U; 2'-OMe 1-3,7,10,13,16-20; DNA T4,T5,A8,T14,C21-C23; 5' idT; 3' PEG 40 kDa
Chymase [1]
  IC50: 55 nM
Chymase [6]
  IC50: 312 nM

## GGGUUAGAUAGAGTUAAAAACCC (mixed, 2'-F U and C; 2'-OMe 1-3,7,8,10,13,16-20; DNA T14; 5' and 3' idT) [SEQ 71]
Chymase [7]
  IC50: 341 nM

## GGGTTAGAUAGAGTUAAAAACCC (mixed, 2'-F U; 2'-OMe 1-3,7,8,10,13,16,18-20; DNA T4,T5,T14,A17,C21-C23; 5' and 3' idT) [72(5)]
Chymase [8]
  IC50: 377 nM
Chymase [1]
  IC50: 27 nM

Source: patent US9012420B2, “Aptamer for chymase, and use thereof” (Ribomic Inc., priority 2009, dated 2015)
